In PMC11012335:

Experiments:
Assay in all cases: EMSA
[1] = system: Hfq H57A (Escherichia coli K-12 MG1655); conditions: EMSA: 20 mM Tris-HCl pH 7.6, 0.5 M NaCl, 1 mM EDTA, 1% glycerol, 20 min at 25 C, native PAGE in 0.5x TBE at 4 C
[2] = system: Hfq K56A (Escherichia coli K-12 MG1655); conditions: EMSA: 20 mM Tris-HCl pH 7.6, 0.5 M NaCl, 1 mM EDTA, 1% glycerol, 20 min at 25 C, native PAGE in 0.5x TBE at 4 C
[3] = system: Hfq Y25D* (Escherichia coli K-12 MG1655); conditions: EMSA: 20 mM Tris-HCl pH 7.6, 0.5 M NaCl, 1 mM EDTA, 1% glycerol, 20 min at 25 C, native PAGE in 0.5x TBE at 4 C
[4] = system: Hfq Q8A (Escherichia coli K-12 MG1655); conditions: EMSA: 20 mM Tris-HCl pH 7.6, 0.5 M NaCl, 1 mM EDTA, 1% glycerol, 20 min at 25 C, native PAGE in 0.5x TBE at 4 C
[5] = system: Hfq K56A/H57A (Escherichia coli K-12 MG1655); conditions: EMSA: 20 mM Tris-HCl pH 7.6, 0.5 M NaCl, 1 mM EDTA, 1% glycerol, 20 min at 25 C, native PAGE in 0.5x TBE at 4 C
[6] = molecular target: Hfq K56A K56A (Escherichia coli K-12 MG1655) (UniProt P0A6X3); conditions: EMSA: 20 mM Tris-HCl pH 7.6, 0.5 M NaCl, 1 mM EDTA, 1% glycerol, 20 min at 25 C; native PAGE in 0.5x TBE at 4 C
[7] = molecular target: Hfq Q8A Q8A (Escherichia coli K-12 MG1655) (UniProt P0A6X3); conditions: EMSA: 20 mM Tris-HCl pH 7.6, 0.5 M NaCl, 1 mM EDTA, 1% glycerol, 20 min at 25 C; native PAGE in 0.5x TBE at 4 C
[8] = molecular target: Hfq K56A/H57A K56A;H57A (Escherichia coli K-12 MG1655) (UniProt P0A6X3); conditions: EMSA: 20 mM Tris-HCl pH 7.6, 0.5 M NaCl, 1 mM EDTA, 1% glycerol, 20 min at 25 C; native PAGE in 0.5x TBE at 4 C
[9] = molecular target: Hfq Y25D* Y25D (Escherichia coli K-12 MG1655) (UniProt P0A6X3); conditions: EMSA: 20 mM Tris-HCl pH 7.6, 0.5 M NaCl, 1 mM EDTA, 1% glycerol, 20 min at 25 C; native PAGE in 0.5x TBE at 4 C
[10] = molecular target: Hfq H57A H57A (Escherichia coli K-12 MG1655) (UniProt P0A6X3); conditions: EMSA: 20 mM Tris-HCl pH 7.6, 0.5 M NaCl, 1 mM EDTA, 1% glycerol, 20 min at 25 C; native PAGE in 0.5x TBE at 4 C

Substance: DsrA
- binding signal (% of WT Hfq binding) ([1]; 43/174 nM Hfq monomer): 66.5
- binding signal (% of WT Hfq binding) ([2]; 43/174 nM Hfq monomer): 24.4
- binding signal (% of WT Hfq binding) ([3]; 43/174 nM Hfq monomer): 163
- binding signal (% of WT Hfq binding) ([4]; 43/174 nM Hfq monomer): 46.9
- binding signal (% of WT Hfq binding) ([5]; 43/174 nM Hfq monomer): 13.2

Substance: GGGAACACAUCAGAUUUCCUGGUGUAACGAAUUUUUUAAGUGCUUCUUGCUUAAGCAAGUUUCAUCCCGACCCCCUCAGGGUCGGGAUUU [DsrA]
- binding signal (% of WT Hfq binding) [6]: 24.4
- binding signal (% of WT Hfq binding) [7]: 46.9
- binding signal (% of WT Hfq binding) [8]: 13.2
- binding signal (% of WT Hfq binding) [9]: 163
- binding signal (% of WT Hfq binding) [10]: 66.5

Substance: RNA I FL
- binding signal (% of WT Hfq binding) ([1]; 130/260 nM Hfq monomer): 72.7
- binding signal (% of WT Hfq binding) ([2]; 130/260 nM Hfq monomer): 36.1
- binding signal (% of WT Hfq binding) ([3]; 130/260 nM Hfq monomer): 125
- binding signal (% of WT Hfq binding) ([4]; 130/260 nM Hfq monomer): 86.5
- binding signal (% of WT Hfq binding) ([5]; 130/260 nM Hfq monomer): 13.8
